Molecular target: T1, 6xHis-PBL34 (Arabidopsis thaliana, UniProt Q9LFP7 1-493)
T1 construct: also called 6x His-tagged PBL34 fusion protein; source: E. coli BL21(DE3)-VR2-pACYC-LamP, purified (HisPur cobalt resin); not shown: 6xHis, N-terminal, kept
T1 sequence (looked up): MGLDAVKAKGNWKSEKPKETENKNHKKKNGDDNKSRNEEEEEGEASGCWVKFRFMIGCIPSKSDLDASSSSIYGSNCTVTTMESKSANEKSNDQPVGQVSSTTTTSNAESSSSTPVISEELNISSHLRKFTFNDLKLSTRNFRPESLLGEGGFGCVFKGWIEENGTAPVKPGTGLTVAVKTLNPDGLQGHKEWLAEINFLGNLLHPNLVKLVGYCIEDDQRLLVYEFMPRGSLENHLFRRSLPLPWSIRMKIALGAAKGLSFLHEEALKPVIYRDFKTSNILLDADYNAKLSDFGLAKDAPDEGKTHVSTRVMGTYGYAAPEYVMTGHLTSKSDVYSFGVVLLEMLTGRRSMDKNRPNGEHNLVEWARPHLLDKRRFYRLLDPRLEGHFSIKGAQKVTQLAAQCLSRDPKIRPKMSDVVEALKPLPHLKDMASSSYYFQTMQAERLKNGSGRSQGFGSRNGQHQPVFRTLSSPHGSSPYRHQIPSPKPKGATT
Test: pull-down; in vitro pulldown with amylose beads; MBP fusion protein as bait, 6xHis-PBL34 detected by Western blot
Settings: both partners purified

binding result: binds
B1: 6xHis-MBP-BRX (natural protein, Arabidopsis thaliana, UniProt Q17TI5 1-344, looked up)
chain: MFSCIACTKADGGEEVEHGARGGTTPNTKEAVKSLTIQIKDMALKFSGAYKQCKPCTGSSSSPLKKGHRSFPDYDNASEGVPYPFMGGSAGSTPAWDFTNSSHHPAGRLESKFTSIYGNDRESISAQSCDVVLDDDGPKEWMAQVEPGVHITFASLPTGGNDLKRIRFSREMFDKWQAQRWWGENYDKIVELYNVQRFNRQALQTPARSDDQSQRDSTYSKMDSARESKDWTPRHNFRPPGSVPHHFYGGSSNYGPGSYHGGPPMDAARTTTSSRDDPPSMSNASEMQAEWIEEDEPGVYITIRQLSDGTRELRRVRFSRERFGEVHAKTWWEQNRERIQTQYL
notes: source: E. coli BL21(DE3) Rosetta pLysS, purified (HisPur cobalt resin); not shown: MBP, N-terminal, kept
